# Paper PMC6232179 (2018)
# T1: His-tagged ER luminal domain of IRE1α (IRE1-NLD-His6-KDEL) (red fluorescent tag, covalently labelled (only in the MST of Figure 4C))
# T1 chain: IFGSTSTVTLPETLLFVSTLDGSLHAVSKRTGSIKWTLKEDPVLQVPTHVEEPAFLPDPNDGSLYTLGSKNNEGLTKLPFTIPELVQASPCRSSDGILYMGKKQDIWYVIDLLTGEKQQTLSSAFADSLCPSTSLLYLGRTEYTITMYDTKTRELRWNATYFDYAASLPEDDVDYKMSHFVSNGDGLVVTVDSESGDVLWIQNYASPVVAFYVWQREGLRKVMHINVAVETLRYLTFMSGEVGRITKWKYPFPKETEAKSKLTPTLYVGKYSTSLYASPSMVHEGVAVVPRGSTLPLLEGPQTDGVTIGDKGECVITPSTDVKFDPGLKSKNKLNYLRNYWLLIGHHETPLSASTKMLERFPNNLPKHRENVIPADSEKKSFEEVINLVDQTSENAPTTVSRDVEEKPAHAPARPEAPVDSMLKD
# Tests used:
# [1] = target: T1, His-tagged ER luminal domain of IRE1α …; assay: SPR
# [2] = target: T1, His-tagged ER luminal domain of IRE1α …; assay: MST; COX-2 labelled
# [3] = target: T1, His-tagged ER luminal domain of IRE1α …; assay: MST; IRE1-NLD labelled
binder,measurement,setting,value
BiP (protein) not shown,Kd,[1],1660 nM
PDIA6 (protein) LYSSSDDVIELTPSNFNREVIQSDSLWLVEFYAPWCGHCQRLTPEWKKAATALKDVVKVGAVDADKHHSLGGQYGVQGFPTIKIFGSNKNRPEDYQGGRTGEAIVDAALSALRQLVKDRLGGRSGGYSSGKQGRSDSSSKKDVIELTDDSFDKNVLDSEDVWMVEFYAPWCGHCKNLEPEWAAAASEVKEQTKGKVKLAAVDATVNQVLASRYGIRGFPTIKIFQKGESPVDYDGGRTRSDIVSRALDLFSDNAPPPELLEIINEDIAKRTCEEHQLCVVAVLPHILDTGAAGRNSYLEVLLKLADKYKKKMWGWLWTEAGAQSELETALGIGGFGYPAMAAINARKMKFALLKGSFSEQGINEFLRELSFGRGSTAPVGGGAFPTIVEREPWDGRDGELPVEDDIDLSDVELDDLGKDEL,Kd,[1],3530 nM
"COX-2 (prostaglandin endoperoxide synthase 2, PTGS2), purified His-tagged protein (enzyme, red fluorescent tag, covalently labelled (only in the MST of Figure 4B)) ANPCCSHPCQNRGVCMSVGFDQYKCDCTRTGFYGENCSTPEFLTRIKLFLKPTPNTVHYILTHFKGFWNVVNNIPFLRNAIMSYVLTSRSHLIDSPPTYNADYGYKSWEAFSNLSYYTRALPPVPDDCPTPLGVKGKKQLPDSNEIVEKLLLRRKFIPDPQGSNMMFAFFAQHFTHQFFKTDHKRGPAFTNGLGHGVDLNHIYGETLARQRKLRLFKDGKMKYQIIDGEMYPPTVKDTQAEMIYPPQVPEHLRFAVGQEVFGLVPGLMMYATIWLREHNRVCDVLKQEHPEWGDEQLFQTSRLILIGETIKIVIEDYVQHLSGYHFKLKFDPELLFNKQFQYQNRIAAEFNTLYHWHPLLPDTFQIHDQKYNYQQFIYNNSILLEHGITQFVESFTRQIAGRVAGGRNVPPAVQKVSQASIDQSRQMKYQSFNEYRKRFMLKPYESFEELTGEKEMSAELEALYGDIDAVELYPALLVEKPRPDAIFGETMVEVGAPFSLKGLMGNVICSPAYWKPSTFGGEVGFQIINTASIQSLICNNVKGCPFTSFSVPDPELIKTVTINASSSRSGLDDINPTVLLKERSTEL",Kd,[2],138 nM
same,Kd,[3],155 nM
